Test results: paper PMC4081072, “Structure and semi-sequence-specific RNA binding of Nrd1”
Numbering of substitutions follows the chain as printed.

Key:
Conditions in all cases: protein: recombinant; tags: C-terminal His6; label: 5' fluorescein or TAMRA (FA); unlabeled (NMR)
Nrd1 307-491 K380A = molecular target: T1, Nrd1 307-491 K380A (Saccharomyces cerevisiae, UniProt P53617 307-491, K380A); test: fluorescence anisotropy; text says binding abolished; FA: 10 nM RNA, 50 mM sodium phosphate pH 8, 150 mM NaCl, 10 mM beta-mercaptoethanol, 20 C (protein stock in 300 mM NaCl); NMR: same buffer with 300 mM NaCl, 20
T1 sequence: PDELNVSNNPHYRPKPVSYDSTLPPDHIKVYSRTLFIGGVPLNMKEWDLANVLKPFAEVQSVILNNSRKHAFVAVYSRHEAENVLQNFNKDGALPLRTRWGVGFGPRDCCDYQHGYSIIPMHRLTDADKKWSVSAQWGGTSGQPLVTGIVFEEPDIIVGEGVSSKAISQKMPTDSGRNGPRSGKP

Nrd1 307-491 N349A = molecular target: T2, Nrd1 307-491 N349A (Saccharomyces cerevisiae, UniProt P53617 307-491, N349A); test: fluorescence anisotropy; FA: 10 nM RNA, 50 mM sodium phosphate pH 8, 150 mM NaCl, 10 mM beta-mercaptoethanol, 20 C (protein stock in 300 mM NaCl); NMR: same buffer with 300 mM NaCl, 20
T2 sequence: T1 sequence with N43A, A74K

Nrd1 307-491 WT = molecular target: T3, Nrd1 307-491 WT (Saccharomyces cerevisiae, UniProt P53617 307-491); test: as above
T3 sequence: T1 sequence with A74K

Nrd1 307-491 R429D = molecular target: T4, Nrd1 307-491 R429D (Saccharomyces cerevisiae, UniProt P53617 307-491, R429D); test: as above
T4 sequence: T1 sequence with A74K, R123D

Nrd1 307-491 H376A = molecular target: T5, Nrd1 307-491 H376A (Saccharomyces cerevisiae, UniProt P53617 307-491, H376A); test: as above
T5 sequence: T1 sequence with H70A, A74K

Nrd1 307-491 G409A = molecular target: T6, Nrd1 307-491 G409A (Saccharomyces cerevisiae, UniProt P53617 307-491, G409A); test: as above
T6 sequence: T1 sequence with A74K, G103A

Nrd1 307-491 G407A = molecular target: T7, Nrd1 307-491 G407A (Saccharomyces cerevisiae, UniProt P53617 307-491, G407A); test: as above
T7 sequence: T1 sequence with A74K, G101A

Nrd1 307-491 H385A = molecular target: T8, Nrd1 307-491 H385A (Saccharomyces cerevisiae, UniProt P53617 307-491, H385A); test: as above
T8 sequence: T1 sequence with A74K, H79A

GUAA (ssRNA)
Kd (Nrd1 307-491 K380A): 442 ± 24.7 µM
Kd (Nrd1 307-491 N349A): 10.2 ± 0.5 µM
Kd (Nrd1 307-491 WT): 10.1 ± 0.8 µM
Kd (Nrd1 307-491 R429D): 24.1 ± 1.7 µM
Kd (Nrd1 307-491 H376A): 59.1 ± 2.6 µM
Kd (Nrd1 307-491 G409A): 157 ± 7.7 µM
Kd (Nrd1 307-491 G407A): 13.9 ± 1.7 µM
Kd (Nrd1 307-491 H385A): 10.3 ± 1.7 µM
